Assay results published in US20090311253A1 (AbbVie / Abbott, published 2009).
“And” between values parts separate entries of the source, which are not always exact repeats. Identical values can stand only once.

Key:
IL-6R on cells [1] = biological target: T1, IL-6R on cells (UniProt P08887 20-468, limits assumed); assay: cell-based or functional assay
T1 sequence (looked up): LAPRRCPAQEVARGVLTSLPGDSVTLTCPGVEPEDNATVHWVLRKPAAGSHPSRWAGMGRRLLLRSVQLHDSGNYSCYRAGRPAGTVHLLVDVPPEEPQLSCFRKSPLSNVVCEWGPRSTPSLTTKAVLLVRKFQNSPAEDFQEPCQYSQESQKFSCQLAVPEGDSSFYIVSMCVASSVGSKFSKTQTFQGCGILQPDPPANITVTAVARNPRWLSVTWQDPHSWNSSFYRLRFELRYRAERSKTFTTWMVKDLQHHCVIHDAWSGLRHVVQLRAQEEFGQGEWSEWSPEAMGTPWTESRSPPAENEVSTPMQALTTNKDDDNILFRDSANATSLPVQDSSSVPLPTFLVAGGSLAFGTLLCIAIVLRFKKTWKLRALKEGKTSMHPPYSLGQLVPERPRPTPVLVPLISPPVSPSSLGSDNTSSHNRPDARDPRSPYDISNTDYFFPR

[2] = biological target: T2, Recombinant Human IL-6 sR (human, UniProt P08887 20-358, limits assumed); assay: direct bind ELISA
T2 construct: domain: IL-6 sR; soluble receptor; also called IL-6R
T2 sequence (looked up): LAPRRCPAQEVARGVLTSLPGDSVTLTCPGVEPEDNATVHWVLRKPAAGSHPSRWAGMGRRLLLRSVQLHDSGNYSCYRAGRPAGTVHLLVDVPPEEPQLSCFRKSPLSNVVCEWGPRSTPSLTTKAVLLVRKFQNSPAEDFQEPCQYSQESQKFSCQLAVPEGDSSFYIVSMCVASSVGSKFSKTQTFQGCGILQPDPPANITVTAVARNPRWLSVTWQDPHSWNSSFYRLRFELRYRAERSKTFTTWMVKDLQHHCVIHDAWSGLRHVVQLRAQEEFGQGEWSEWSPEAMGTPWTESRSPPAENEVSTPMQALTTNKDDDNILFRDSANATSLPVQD
Method: (§1) Enzyme Linked Immunosorbent Assays to screen for antibodies that bind a desired target antigen were performed as follows. High bind ELISA plates (Corning Costar # 3369, Acton, Mass.) were coated with 100 μL/well of 10 μg/ml of desired target antigen (R&D Systems, Minneapolis, Minn.) or desired target antigen extra-cellular domain/FC fusion protein (R&D Systems, Minneapolis, Minn.) or monoclonal mouse anti-polyhistidine antibody (R&D Systems # MAB050, Minneapolis, Minn.) in phosphate buffered saline (10×PBS, Abbott Bioresearch Center, Media Prep# MPS-073, Worcester, Mass.) overnight at 4° C. Plates were washed four times with PBS containing 0.02% Tween 20. Plates were blocked by the addition of 300 μL/well blocking solution (non-fat dry milk powder, various retail suppliers, diluted to 2% in PBS) for ½ hour at room temperature. Plates were washed four times after blocking with PBS containing 0.02% Tween 20.
(§2) Plates were washed 4 times with PBS containing 0.02% Tween 20.
(§3) One hundred microliters of enhanced TMB solution (Neogen Corp. #308177, K Blue, Lexington, Ky.) was added to each well and incubated for 10 minutes at room temperature. The reaction was stopped by the addition of 50 μL 1N sulphuric acid. Plates were read spectrophotometrically at a wavelength of 450 nm.

[3] = biological target: T2, Recombinant Human IL-6 sR; assay: Biacore SPR
Method: (§4) The BIACORE assay (Biacore, Inc, Piscataway, N.J.) determines the affinity of antibodies or DVD-Ig with kinetic measurements of on-rate and off-rate constants. Binding of antibodies or DVD-Ig to a target antigen (for example, a purified recombinant target antigen) is determined by surface plasmon resonance-based measurements with a BiacoreR 1000 or 3000 instrument (Biacore® AB, Uppsala, Sweden) using running HBS-EP (10 mM HEPES [pH 7.4], 150 mM NaCl, 3 mM EDTA, and 0.005% surfactant P20) at 25° C. All chemicals are obtained from Biacore® AB (Uppsala, Sweden) or otherwise from a different source as described in the text. For example, approximately 5000 RU of goat anti-mouse IgG, (Fcγ), fragment specific polyclonal antibody (Pierce Biotechnology Inc, Rockford, Ill.) diluted in 10 mM sodium acetate (pH 4.5) is directly immobilized across a CM5 research grade biosensor chip using a standard amine coupling kit according to manufacturer's instructions and procedures at 25 μg/ml. Unreacted moieties on the biosensor surface are blocked with ethanolamine. Modified carboxymethyl dextran surface in flowcell 2 and 4 is used as a reaction surface. Unmodified carboxymethyl dextran without goat anti-mouse IgG in flow cell 1 and 3 is used as the reference surface. For kinetic analysis, rate equations derived from the 1:1 Langmuir binding model are fitted simultaneously to association and dissociation phases of all eight injections (using global fit analysis) with the use of Biaevaluation 4.0.1 software. Purified antibodies or DVD-Ig are diluted in HEPES-buffered saline for capture across goat anti-mouse IgG specific reaction surfaces. Antibodies or DVD-Ig to be captured as a ligand (25 μg/ml) are injected over reaction matrices at a flow rate of 5 μl/min. The association and dissociation rate constants, kₒₙ (M⁻¹s⁻¹) and koff (s⁻¹) are determined under a continuous flow rate of 25 μl/min. Rate constants are derived by making kinetic binding measurements at different antigen concentrations ranging from […]. The equilibrium dissociation constant (M) of the reaction between antibodies or DVD-Igs and the target antigen is then calculated from the kinetic rate constants by the following formula: KD=koff/kₒₙ. Binding is recorded as a function of time and kinetic rate constants are calculated.

IL-6R on cells [4] = biological target: T1, IL-6R on cells; assay: flow cytometry on cells, 2 µg/mL
Method: Stable cell lines overexpressing a cell-surface antigen of interest or human tumor cell lines were harvested from tissue culture flasks and resuspended in phosphate buffered saline (PBS) containing 5% fetal bovine serum (PBS/FBS). Prior to staining, human tumor cells were incubated on ice with (100 μl) human IgG at 5 μg/ml in PBS/FCS. 1−5×10⁵ cells were incubated with antibody or DVD-Ig (2 μg/mL) in PBS/FBS for 30-60 minutes on ice. […] After 30 minutes incubation on ice, cells were washed twice and resuspended in PBS/FBS. Fluorescence was measured using a Becton Dickinson FACSCalibur (Becton Dickinson, San Jose, Calif.).
The geometric mean is the n root of the multiplication product of n fluorescent signals (a1×a2×a3 . . . an). With log-transformed data the geometric mean is used to normalize the weighting of the data distribution.

[5] = biological target: T3, Recombinant Human TRANCE/RANKL/TNFSF 11 (human, UniProt O14788 69-317); assay: direct bind ELISA
T3 construct: extracellular domain
T3 sequence (looked up): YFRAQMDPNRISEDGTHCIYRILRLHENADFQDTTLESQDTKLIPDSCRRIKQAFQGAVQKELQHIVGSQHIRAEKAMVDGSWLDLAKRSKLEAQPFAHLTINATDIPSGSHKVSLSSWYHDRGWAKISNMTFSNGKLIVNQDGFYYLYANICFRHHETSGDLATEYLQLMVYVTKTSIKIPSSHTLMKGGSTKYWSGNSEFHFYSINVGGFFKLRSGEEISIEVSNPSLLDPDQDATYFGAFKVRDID
Method: as §1, §2, §3

Recombinant Human IL-13 [6] = biological target: T4, Recombinant Human IL-13 (human, UniProt P35225 35-146, limits assumed); assay: cell-based or functional assay
T4 sequence (P35225 35-146 limits assumed): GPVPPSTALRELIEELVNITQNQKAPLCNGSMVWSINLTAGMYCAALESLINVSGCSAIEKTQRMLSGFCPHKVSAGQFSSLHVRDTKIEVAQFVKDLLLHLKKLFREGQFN

Recombinant Human IL-13 [7] = biological target: T4, Recombinant Human IL-13; assay: Biacore SPR
Method: as §4

Recombinant Human IL-9 = Recombinant Human IL-9 (human, UniProt P15248 19-144); assay: Biacore SPR
Sequence of Recombinant Human IL-9 (P15248 19-144 limits assumed): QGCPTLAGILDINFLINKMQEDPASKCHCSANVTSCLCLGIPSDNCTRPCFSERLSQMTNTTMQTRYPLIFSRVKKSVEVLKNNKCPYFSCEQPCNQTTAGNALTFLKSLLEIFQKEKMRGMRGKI
Method: as §4

Recombinant Human IL-4 [8] = biological target: T5, Recombinant Human IL-4 (human, UniProt P05112 25-153); assay: direct bind ELISA
T5 sequence (looked up): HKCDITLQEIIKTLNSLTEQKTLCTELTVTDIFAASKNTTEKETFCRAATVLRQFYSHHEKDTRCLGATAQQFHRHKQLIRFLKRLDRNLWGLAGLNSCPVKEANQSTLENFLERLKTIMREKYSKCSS
Method: as §1, §2, §3

Recombinant Human IL-4 [9] = biological target: T5, Recombinant Human IL-4; assay: cell-based or functional assay
Recombinant Human IL-4 [10] = biological target: T5, Recombinant Human IL-4; assay: Biacore SPR
Method: as §4

Recombinant Human IL-1β [11] = biological target: T6, Recombinant Human IL-1β (human, UniProt P01584 117-269); assay: direct bind ELISA
T6 construct: also called IL-1b; IL-1B
Method: as §1, §2, §3

[12] = biological target: T3, Recombinant Human TRANCE/RANKL/TNFSF 11; assay: Biacore SPR
Method: as §4

Recombinant Human IL-1β [13] = biological target: T6, Recombinant Human IL-1β; assay: Biacore SPR
Method: as §4

Recombinant Human IL-1β [14] = biological target: T6, Recombinant Human IL-1β; assay: cell-based or functional assay

B1: AB054 (antibody, human IgG1, kappa, V domains shown)
VH: EVQLQESGPGLVRPSQTLSLTCTVSGYSITSDHAWSWVRQPPGRGLEWIGYISYSGITTYNPSLKSRVTMLRDTSKNQFSLRLSSVTAADTAVYYCARSLARTTAMDYWGQGSLVTVSS
VL: DIQMTQSPSSLSASVGDRVTITCRASQDISSYLNWYQQKPGKAPKLLIYYTSRLHSGVPSRFSGSGSGTDFTFTISSLQPEDIATYYCQQGNTLPYTFGQGTKVEIKR
notes: vectors V1 and V2; also called anti-IL-6R parent antibody
IL-6R on cells [1]
  IL-6 induced pSTAT3 in TF-1 cells, EC50: 70 pM
[2]
  EC50: 1.42 nM and 1.24 nM and 1.31 nM
[3]
  Kd: 0.614 nM
  koff: 0.000206 s⁻¹
  kon: 336000 M⁻¹ s⁻¹
IL-6R on cells [4]
  FACS Geometric Mean: 5.94

B2: DVD129 (bispecific antibody, human IgG1, kappa)
heavy: not shown
light: DIQMTQSPSSLSASVGDRVTITCRASQDISSYLNWYQQKPGKAPKLLIYYTSRLHSGVPSRFSGSGSGTDFTFTISSLQPEDIATYYCQQGNTLPYTFGQGTKVEIKRTVAAPEIVLTQSPGTLSLSPGERATLSCRASQSVRGRYLAWYQQKPGQAPRLLIYGASSRATGIPDRFSGSGSGTDFTLTISRLEPEDFAVFYCQQYGSSPRTFGQGTKVEIKRTVAAPSVFIFPPSDEQLKSGTASVVCLLNNFYPREAKVQWKVDNALQSGNSQESVTEQDSKDSTYSLSSTLTLSKADYEKHKVYACEVTHQGLSSPVTKSFNRGEC
notes: vectors V1, V2; also called IL-6R and RANKL DVD-Ig
IL-6R on cells [1]
  IL-6 induced pSTAT3 in TF-1 cells, EC50: 0.16 nM
[5]
  EC50: 0.53 nM
[2]
  EC50: 0.96 nM
IL-6R on cells [4]
  FACS Geometric Mean: 8.43

B3: AB051 (antibody, human IgG1, kappa, V domains shown)
VH: EVTLRESGPGLVKPTQTLTLTCTLYGFSLSTSDMGVDWIRQPPGKGLEWLAHIWWDDVKRYNPALKSRLTISKDTSKNQVVLKLTSVDPVDTATYYCARTVSSGYIYYAMDYWGQGTLVTVSS
VL: DIQMTQSPSSLSASVGDRVTISCRASQDIRNYLNWYQQKPGKAPKLLIFYTSKLHSGVPSRFSGSGSGTDYTLTISSLQPEDIATYYCQQGLTPPLTFGGGTKVEIKR
notes: vectors V1 and V2
Recombinant Human IL-13 [6]
  IL-13 Neutralization Assay EC50 (A549 cells, hTARC): 0.1 nM
Recombinant Human IL-13 [7]
  kon: 2.14e+06 M⁻¹ s⁻¹

B4: AB056 (antibody, human IgG1, kappa, V domains shown)
VH: QVQLQQSGAELMKPGASVKLSCKATGYTFTGSWIEWIKQRPGHGLEWIGQILPGSGSAYYNEKFKGKATFTADTSSKTVYIQLISLTTEDSAIYYCAREDNYGSSSLAYWGQGTLLTVSA
VL: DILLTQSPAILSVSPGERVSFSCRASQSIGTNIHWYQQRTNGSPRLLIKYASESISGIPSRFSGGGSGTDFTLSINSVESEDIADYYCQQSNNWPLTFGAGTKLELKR
notes: vectors V1 and V2
Recombinant Human IL-9
  Kd: 9.93 pM
  koff: 5.62e-05 s⁻¹
  kon: 5.66e+06 M⁻¹ s⁻¹

B5: AB027 (antibody, human IgG1, kappa, V domains shown)
VH: QVTLRESGPALVKPTQTLTLTCTFSGFSLSTSGMGVSWIRQPPGKGLEWLAHIYWDDDKRYNPSLKSRLTISKDTSRNQVVLTMTNMDPVDTATYYCARRETVFYWYFDVWGRGTPVTVSS
VL: DIVLTQSPSSLSASVGDRVTITCKASQSVDYDGDSYMNWYQQKPGKAPKLLIYAASNLESGIPSRFSGSGSGTDFTFTISSLQPEDIATYYCQQSNEDPPTFGQGTKVEIKR
notes: vectors V1 and V2; also called anti-IL-4 parent antibody
Recombinant Human IL-4 [8]
  EC50: 5.81 nM
Recombinant Human IL-4 [9]
  IL-4 Neutralization Assay EC50 (A549 cells, hTARC): 0.21 nM
Recombinant Human IL-4 [10]
  Kd: 0.0219 nM
  koff: 0.00013 s⁻¹
  kon: 5.92e+06 M⁻¹ s⁻¹

B6: DVD126 (bispecific antibody, human IgG1, kappa)
heavy: not shown
light: EIVLTQSPGTLSLSPGERATLSCRASQSVRGRYLAWYQQKPGQAPRLLIYGASSRATGIPDRFSGSGSGTDFTLTISRLEPEDFAVFYCQQYGSSPRTFGQGTKVEIKRTVAAPEIVLTQSPDFQSVTPKEKVTITCRASQSIGSSLHWYQQKPDQSPKLLIKYASQSFSGVPSRFSGSGSGTDFTLTINSLEAEDAAAYYCHQSSSLPFTFGPGTKVDIKRTVAAPSVFIFPPSDEQLKSGTASVVCLLNNFYPREAKVQWKVDNALQSGNSQESVTEQDSKDSTYSLSSTLTLSKADYEKHKVYACEVTHQGLSSPVTKSFNRGEC
notes: outer AB018, inner AB032; vectors V1, V2
[5]
  EC50: 0.4 nM
Recombinant Human IL-1β [11]
  EC50: 4.46 µM
[12]
  Kd: < 8.77 pM
  koff: < 1e-06 s⁻¹
  kon: 114000 M⁻¹ s⁻¹
Recombinant Human IL-1β [13]
  Kd: < 0.117 nM
  koff: < 1e-06 s⁻¹
  kon: 8520 M⁻¹ s⁻¹
Recombinant Human IL-1β [14]
  IL-1β Neutralization Assay EC50 (MRC5 cells, hIL-8): 4.29 nM
